Assay results: publication PMC7708082

Target: translesion synthesis (TLS) polymerase ι (human (endogenous in K562)) (UniProt Q9UNA4)
Assay: proximity ligation

UniProt Q9UNA4, sequence (Q9UNA4 whole entry): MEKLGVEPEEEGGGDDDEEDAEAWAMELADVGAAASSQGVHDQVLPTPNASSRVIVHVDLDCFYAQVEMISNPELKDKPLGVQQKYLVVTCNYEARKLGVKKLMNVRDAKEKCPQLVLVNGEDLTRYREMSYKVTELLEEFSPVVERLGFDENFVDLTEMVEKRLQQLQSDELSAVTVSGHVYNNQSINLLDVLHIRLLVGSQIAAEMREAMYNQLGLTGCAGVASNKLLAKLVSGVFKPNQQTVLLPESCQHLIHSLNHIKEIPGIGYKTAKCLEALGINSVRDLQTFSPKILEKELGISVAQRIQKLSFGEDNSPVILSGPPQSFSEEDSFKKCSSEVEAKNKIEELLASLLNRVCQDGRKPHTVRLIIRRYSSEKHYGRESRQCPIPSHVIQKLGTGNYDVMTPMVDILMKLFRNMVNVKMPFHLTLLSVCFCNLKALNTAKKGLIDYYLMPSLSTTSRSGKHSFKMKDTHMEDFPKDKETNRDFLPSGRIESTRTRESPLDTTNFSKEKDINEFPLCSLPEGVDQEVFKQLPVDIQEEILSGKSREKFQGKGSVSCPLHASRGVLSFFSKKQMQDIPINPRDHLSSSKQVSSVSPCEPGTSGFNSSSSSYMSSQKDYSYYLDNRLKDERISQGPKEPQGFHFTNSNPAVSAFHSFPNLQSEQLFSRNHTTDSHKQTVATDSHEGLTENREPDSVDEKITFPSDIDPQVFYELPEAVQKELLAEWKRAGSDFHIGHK

reduction in PLA-foci numbers against p53(WT): 64%
Substance: p53(22Q/23S) (from UniProt P04637 1-393) (natural protein)
